Measurements taken from PMC4338599.

Biological target: Ku70-Ku80 heterodimer (Ku);PAXX WT (PAXX1-204, C9orf142) (human?;human, UniProt P12956;P13010;Q9BUH6 1-609;1-732;1-204, |)
Assay: EMSA

Ku70-Ku80 heterodimer (Ku);PAXX WT (PAXX1-204, C9orf142), sequence (P12956 whole entry, chain 1 of 3): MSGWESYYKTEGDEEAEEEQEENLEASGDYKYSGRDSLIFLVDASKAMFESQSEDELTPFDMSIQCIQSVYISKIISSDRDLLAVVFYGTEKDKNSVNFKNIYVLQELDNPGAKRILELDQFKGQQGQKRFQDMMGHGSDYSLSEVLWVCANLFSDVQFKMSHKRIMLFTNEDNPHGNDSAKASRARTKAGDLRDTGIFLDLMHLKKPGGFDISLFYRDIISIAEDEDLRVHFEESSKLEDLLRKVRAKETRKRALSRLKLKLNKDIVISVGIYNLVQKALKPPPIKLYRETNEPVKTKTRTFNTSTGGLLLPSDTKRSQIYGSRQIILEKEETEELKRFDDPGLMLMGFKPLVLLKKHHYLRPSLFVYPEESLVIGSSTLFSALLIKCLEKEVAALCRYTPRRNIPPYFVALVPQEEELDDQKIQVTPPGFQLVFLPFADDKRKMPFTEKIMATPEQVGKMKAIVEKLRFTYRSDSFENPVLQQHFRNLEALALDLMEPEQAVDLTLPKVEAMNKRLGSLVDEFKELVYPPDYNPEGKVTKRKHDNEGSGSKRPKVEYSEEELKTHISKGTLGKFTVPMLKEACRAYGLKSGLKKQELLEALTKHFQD
Ku70-Ku80 heterodimer (Ku);PAXX WT (PAXX1-204, C9orf142), sequence (P13010 whole entry, chain 2 of 3): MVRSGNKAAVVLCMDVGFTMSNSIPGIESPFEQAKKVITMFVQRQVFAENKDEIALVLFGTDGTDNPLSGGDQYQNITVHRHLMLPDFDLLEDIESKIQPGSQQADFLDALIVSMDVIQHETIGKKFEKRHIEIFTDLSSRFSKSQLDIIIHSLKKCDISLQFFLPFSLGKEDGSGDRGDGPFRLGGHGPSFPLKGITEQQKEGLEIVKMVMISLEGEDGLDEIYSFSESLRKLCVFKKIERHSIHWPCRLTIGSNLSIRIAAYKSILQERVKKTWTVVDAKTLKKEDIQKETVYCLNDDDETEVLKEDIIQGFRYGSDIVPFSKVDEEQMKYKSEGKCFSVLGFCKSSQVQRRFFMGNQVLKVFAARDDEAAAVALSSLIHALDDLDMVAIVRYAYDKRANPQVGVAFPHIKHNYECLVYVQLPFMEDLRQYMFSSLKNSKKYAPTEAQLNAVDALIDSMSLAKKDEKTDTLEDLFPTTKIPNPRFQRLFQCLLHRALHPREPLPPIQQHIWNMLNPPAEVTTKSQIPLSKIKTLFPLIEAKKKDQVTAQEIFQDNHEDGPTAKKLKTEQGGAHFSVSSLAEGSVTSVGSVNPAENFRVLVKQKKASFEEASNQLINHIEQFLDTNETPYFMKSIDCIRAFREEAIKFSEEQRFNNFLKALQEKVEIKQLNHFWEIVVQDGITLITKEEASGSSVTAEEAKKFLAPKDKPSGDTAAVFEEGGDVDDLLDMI
Ku70-Ku80 heterodimer (Ku);PAXX WT (PAXX1-204, C9orf142), sequence (Q9BUH6 whole entry, chain 3 of 3): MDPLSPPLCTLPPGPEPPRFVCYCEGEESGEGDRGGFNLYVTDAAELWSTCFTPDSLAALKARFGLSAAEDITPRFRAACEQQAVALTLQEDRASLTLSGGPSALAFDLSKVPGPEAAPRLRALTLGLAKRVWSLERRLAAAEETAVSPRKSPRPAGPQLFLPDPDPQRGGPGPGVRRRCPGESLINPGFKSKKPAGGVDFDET

B1: 50-bp 6-FAM dsDNA (dsDNA)
DNA 1: TAAATGCCAATGCTGCTGATACGTACTCGGACTGATTCGGAACTGTAACG
DNA 2: CGTTACAGTTCCGAATCAGTCCGAGTACGTATCAGCAGCATTGGCATTTA
  binding result: binds
